Assay results as given in US20250092148A1 (Kyowa Kirin, published 2025).
Residue numbers refer to the chain shown, from its start.

What was measured:
human CD131 H147A = target: T1, human CD131 H147A (human, UniProt P32927 17-897); test: flow cytometry, Fab on HEK-293T cells expressing the mutant; labels of this column stand one row too low, mutant assigned after shifting them up
T1 construct: whole, on cells
T1 sequence (looked up): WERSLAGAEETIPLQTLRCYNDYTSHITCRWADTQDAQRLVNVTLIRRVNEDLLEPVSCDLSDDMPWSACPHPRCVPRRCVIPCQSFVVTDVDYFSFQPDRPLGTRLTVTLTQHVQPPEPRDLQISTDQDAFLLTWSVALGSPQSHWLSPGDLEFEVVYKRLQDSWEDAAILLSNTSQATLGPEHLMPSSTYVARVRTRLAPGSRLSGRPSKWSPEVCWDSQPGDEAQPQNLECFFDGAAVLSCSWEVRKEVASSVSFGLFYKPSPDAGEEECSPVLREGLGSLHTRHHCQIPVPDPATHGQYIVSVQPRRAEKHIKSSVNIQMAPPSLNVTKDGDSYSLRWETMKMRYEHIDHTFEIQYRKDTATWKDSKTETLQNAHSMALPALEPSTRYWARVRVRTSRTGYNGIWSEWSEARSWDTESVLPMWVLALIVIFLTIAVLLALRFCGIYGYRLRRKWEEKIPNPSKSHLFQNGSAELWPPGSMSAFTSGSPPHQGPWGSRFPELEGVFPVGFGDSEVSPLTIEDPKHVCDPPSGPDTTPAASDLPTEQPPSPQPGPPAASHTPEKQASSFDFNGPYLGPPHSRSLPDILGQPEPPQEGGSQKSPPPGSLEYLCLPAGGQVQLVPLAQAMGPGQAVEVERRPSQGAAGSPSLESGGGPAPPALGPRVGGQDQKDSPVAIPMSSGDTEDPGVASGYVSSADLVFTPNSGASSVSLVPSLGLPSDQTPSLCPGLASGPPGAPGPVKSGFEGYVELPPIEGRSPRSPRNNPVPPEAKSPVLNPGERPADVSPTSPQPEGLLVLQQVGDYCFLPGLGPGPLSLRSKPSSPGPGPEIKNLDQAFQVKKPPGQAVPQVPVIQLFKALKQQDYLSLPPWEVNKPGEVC

human CD131 G198A = target: T2, human CD131 G198A (human, UniProt P32927 17-897); test: as above
T2 construct: whole, on cells
T2 sequence (looked up): T1 sequence (looked up) with A131H, G182A

human CD131 W163A = target: T3, human CD131 W163A (human, UniProt P32927 17-897); test: flow cytometry, Fab on HEK-293T cells expressing the mutant; labels of this column stand one row too low, mutant assigned after shifting them up (text: W163 is an epitope residue)
T3 construct: whole, on cells
T3 sequence (looked up): T1 sequence (looked up) with A131H, W147A

B1: anti-CD131 antibody 131-B2, Fab (Fab, V domains shown)
VH: QVQLVQSGAEVKEPGASVKISCKASGYTFTNDYMHWVRQAPGQGLEWMGIINPTGGGTSYAQKFRGRVTMTRDTSTSTVYMELSSLRSEDTAVFYCARERYYGSGTYFNIGLWYFDLWGRGTLVTVSS
VL: not shown
notes: Fab made from the antibody by an enzyme treatment
In the case of B1, the “Binding Reactivity (% WT)” value (human CD131 H147A) is reported as 110 % WT, the “Binding Reactivity (% WT)” value (human CD131 G198A) is reported as 194 % WT and the “Binding Reactivity (% WT)” value (human CD131 W163A) is reported as -9 % WT.
